The record followed here is paper PMC11100808.

The Kd is the equilibrium constant for the complex coming apart.

This experiment addresses biotinylated human CK1δ catalytic domain (CK1δ ΔC) (human) (UniProt P48730). Nature of the experiment: BLI. For orientation: BLI is a label-free optical method that tracks binding on a fibre tip over time.

For the substance “LIN-42 CK1BD + Tail (from UniProt Q65ZG8 402-597) (domain or fragment)”, the Kd was 209 nM.
